Measured values taken from article PMC8459933.

Legend:
[1] = biological target: PltB subunit of typhoid toxin (Salmonella enterica serovar Typhi); assay: cryo-EM structure
[2] = biological target: tagless PltB pentamer (Salmonella enterica serovar Typhi); assay: SEC

Row | Substance | stoichiometry N [1] | stoichiometry N [2]
1 | PltB subunit of typhoid toxin (natural protein) | 5 | –
2 | tagless PltB pentamer (natural protein) | – | 5
